Data on 1 molecule can be found in US5458874A, “Method of increasing monocyte chemotaxis with CAP37 and monocyte chemotactic portions thereof” (Emory University, priority 1992, dated 1995).

In test [1] the test system is LPS from S. minnesota wild type; LPS from S. minnesota Re mutant. The experiment in a line: ELISA, binding of CAP37 to LPS. The conditions noted are these: CAP37 at 120 ng/well; LPS 0 to 50 μg/ml. As for the experimental part: (§1) The LPS from S. minnesota wild type, S. minnesota Re mutant, Lipid A from S. minnesota R595, and Lipid A from S. typhimurium Re mutant were applied to microtiter wells at concentrations ranging from 0 to 50 μg/ml and incubated overnight. The trays were then incubated with CAP37 at 120 ng/well for 1 hour at 37° C. The next incubation was with a rabbit antiserum against CAP37 (1:400 dilution) and the color development was as previously described (Pereira et al., 1989) and the absorbance was read at 492 nm.

The subject of a further test is Ps. aeruginosa. The conditions noted are these: (Shafer, 1986); cited from earlier work.
A further test concerns rabbit PMN. As to the kind of experiment: Rabbit PMN chemotaxis. It is filed as cell-based. As for the experimental part: (§2) Chemotaxis was measured using the modified Boyden chamber technique (Snyderman et al.). The leading front method (Zigmond et al.) was used to assess migration of monocytes and lymphocytes through a 8 μm filter (Millipore Corporation, Bedford, Mass.). PMN chemotaxis was measured using a 3 μm filter (Millipore). The purified CAP37 protein (Example 1) used in chemotaxis assays were endotoxin-free as determined by the Limulus Amoebocyte Lysate Assay (Whittaker Bioproducts, Inc., Walkersville, Md.). The dilutions of CAP37 and N-formyl-methionyl-leucyl-phenylalanine (FMLP) were made in Geys buffer (Gibco) containing 2% endotoxin-free bovine serum albumin (BSA). Geys buffer containing 2% BSA served as the negative control, and a […] solution of FMLP as the positive control.
(§3) The chambers were incubated in a humidified atmosphere (6.2% CO2) for 2 hours when testing monocytes and lymphocytes, and for 30 minutes when testing PMNs. The filters were then removed and processed as previously described (Snyderman et al.). The cells were viewed using oil immersion and the distance the cells had migrated into the filter was determined over five different fields on the same slide (Zigmond et al.). Triplicate assays were performed for each experimental point.

Test [2] deals with Lipid A from S. minnesota R595; Lipid A from S. typhimurium Re mutant. The experiment in a line: ELISA, binding of CAP37 to Lipid A. The conditions noted are these: CAP37 at 120 ng/well; Lipid A 0 to 50 μg/ml. The protocol:
as §1

The test system of the next test is P. mirabilis Re45. The conditions noted are these: (Shafer, 1986); cited from earlier work.
In a further test the test system is Salmonella LT2. The conditions noted are these: (Shafer, 1986); cited from earlier work.
A further test has as its system wild type LPS. The experiment in a line: Neutralization of LPS activity, limulus amebocyte lysate (LAL) assay, wild type LPS. The class given is biochemical. As for the experimental part: Further, the neutralization of LPS activity, as assayed by the limulus amebocyte lysate (LAL) assay, by CAP37 was measured. CAP37 was diluted to the desired concentrations (from 6.2 ng/ml to 500 ng/ml) in geys buffered saline pH 7 (GIBCO). To this wild type LPS (RIBI IMMUNOCHEM) or Re LPS from Salmonella (David Morrison, Kansas Medical Center) was added so that the final concentrations were 0.1, 0.5, 1.0 and 2.0 ng/ml LPS. The tubes were incubated at 37° C. for between 30 to 60 minutes and then assayed in the chromogenic LAL assay, using polymyxin E as a control.
As discussed in Example 11, peptides can be screened for lipopolysaccharide neutralizing capacity using the LAL assay also. The CAP37 peptide was diluted to the desired concentrations (from 125 ng/ml to 4000 ng/ml) in geys buffered saline pH 7 (GIBCO). To this is added the wild type LPS (RIBI IMMUNOCHEM) or Re LPS from Salmonella (David Morrison, Kansas Medical Center) so that the final concentration is 0.1, 0.5, and 1.0 ng/ml LPS. The tubes were incubated at 37° C. for between 30 to 60 minutes and then assayed in the chromogenic LAL assay.

A further test concerns PMN. As to the kind of experiment: PMN chemotaxis, modified Boyden chamber technique. It is filed as cell-based, human. The note with it: range employed in these experiments. The protocol:
as §2, §3

The test system of the next test is E. coli. The note with it: (Shafer, 1986); cited from earlier work.
The next test deals with lymphocytes. The experiment in a line: Lymphocyte chemotaxis, modified Boyden chamber technique. The class given is cell-based, human. The note with it: range employed in these experiments. As for the experimental part:
as §2, §3

The next test relates to Salmonella SH7518. As to the kind of experiment: Bactericidal assay. The conditions noted are these: Salmonella SH7518. It is filed as cell-based, Salmonella typhimurium. As for the experimental part: (§4) An overnight culture of Salmonella typhimurium (or other microorganism of interest, if desired) is set up by inoculating one colony in 5 ml of LB Broth (LB Broth consists of 10 g BACTO tryptone (DIFCO), 5 g BACFO yeast (DIFCO) and 5 g NaCl made up to 1 L with endotoxin free water; add 15 g of BACTO agar (DIFCO) to this broth to make LB agar (autoclave). The culture is incubated at 37° C. with rotation. 100 μl of this overnight culture is then transferred to 5 ml of fresh LB Broth and incubated at 37° C. with rotation for 2 hours. Four ml of this log phase culture is then transferred to a sterile cuvette and the optical density is read at […]. Dilutions of the microorganism are then made in tryptone saline (5 g BAOTO tryptone (DIFCO) and 5 g NaCl made up to 1 L with endotoxin free water, pH 5.5) to give a final concentration of 5×10^3 organisms/ml (an O.D. reading of 0.25 at 520 mm is equivalent to 1×10^8 organisms/ml). The microorganisms are placed at 4° C. until ready to be used.
(§5) The stock solutions of peptides are stored at -20° C. at concentrations of 1 mg/ml of endotoxin-free water. The peptide is diluted out in tryptone saline to the desired concentration. 100 μl of the peptide is added to each well of the microtitre plate (Corning) and then 100 μl of the bacterial suspension (well vortexed) is added. Each assay point is set up in triplicate. 100 μl of a control, consisting of bacteria and tryptone saline (T=0) in the absence of peptide is plated out on LB agar plates. The microliter plate is then incubated at 37° C. for 1 hour. At the end of the incubation time, 100 μl of each sample is plated out on LB agar plates. The T=60 control (consisting of bacteria and tryptone saline in the absence of peptide) is plated out last. The plates are incubated overnight, and the number of colony forming units (CFU) are determined.
(§6) The % killed is determined as follows: [formula]

In a further test the test system is Salmonella SH7426. The experiment in a line: Bactericidal assay. The class given is cell-based. The protocol:
as §4, §5, §6

A further test concerns monocytes. As to the kind of experiment: Checkerboard assay (chemokinesis). It is filed as cell-based, human.
The subject of another test is rabbit monocytes. The experiment in a line: Rabbit monocyte chemotaxis. The class given is cell-based. The note with it: 1000 ng/ml (2.7×10^-8 M). As for the experimental part:
Peripheral blood mononuclear cells from adult female rabbits, were separated on a 61% PERCOLL (Pharmacia) gradient (Chambers et al.). This technique separated the mononuclear cells from the RBC and PMNs. No further separation of monocytes from lymphocytes was undertaken with the rabbit blood.
as §2
The chambers were incubated in a humidified atmosphere (6.2% CO2) for 2 hours when testing monocytes and lymphocytes, and for 30 minutes when testing PMNs. […] The cells were viewed using oil immersion and the distance the cells had migrated into the filter was determined over five different fields on the same slide (Zigmond et al.). […]

Entries after “also recorded” stand apart in the source; their conditions may differ.

B1: CAP37: granule-associated cationic protein (mol. wt. 37,000 daltons) from human PMN, 222 amino acid mature protein (protein)
chain: IVGGRKARPRQFPFLASIQNQGRHFCGGALIHARFVMTAASCFQSQNPGVSTVVLGAYDLRRRERQSRQTFSISSMSENGYDPQQNLNDLMLLQLDREANLTSSVTILPLPLQNATVEAGTRCQVAGWGSQRSGGRLSRFPRFVNVTVTPEDQCRPNNVCTGVLTRRGGICNGDGGTPLVCEGLAHGVASFSLGPCGRGPDFFTRVALFRDWIDGVLNNPGP
On to B1, for which the “binding to LPS (ELISA)” value in test [1] was “capable of binding Re LPS”. Further, the “% survival with CAP 37” value with Ps. aeruginosa is 36%; in the test on P. mirabilis Re45, 100%; in the test with Salmonella LT2, 43%; with E. coli it was 4%; in the test with Salmonella SH7518, 10.9%; with Salmonella SH7426, 64.3%. Besides, in the test on rabbit PMN, the “chemotactic response of rabbit PMN” value is given as “did not show a chemotactic response”. Besides, the “binding to Lipid A (ELISA)” value in test [2] was “capable of binding LPS and, in particular, Lipid A; also recorded: able to bind to Lipid A better than wild type LPS”. For the same molecule, the “neutralization of wild type LPS activity (LAL assay)” value in the test with wild type LPS was “significantly neutralized LPS activity”. Also, the “effect on PMN chemotaxis” value in the test on PMN is listed as “did not have any effect”. For the same molecule, the “effect on lymphocyte chemotaxis” value in the test on lymphocytes was “did not have any effect”. In addition, the “chemokinetic effect on monocytes” value in the test with monocytes is listed as “some chemokinetic effect”. Moreover, in the test on rabbit monocytes, the “chemotactic for rabbit monocytes” value is listed as “chemotactic”.
